B1: Beta-adrenergic receptor kinase 1 (Homo sapiens), P25098 (parent)
chain: MADLEAVLADVSYLMAMEKSKATPAARASKKILLPEPSIRSVMQKYLEDRGEVTFEKIFSQKLGYLLFRDFCLNHLEEARPLVEFYEEIKKYEKLETEEERVARSREIFDSYIMKELLACSHPFSKSATEHVQGHLGKKQVPPDLFQPYIEEICQNLRGDVFQKFIESDKFTRFCQWKNVELNIHLTMNDFSVHRIIGRGGFGEVYGCRKADTGKMYAMKCLDKKRIKMKQGETLALNERIMLSLVSTGDCPFIVCMSYAFHTPDKLSFILDLMNGGDLHYHLSQHGVFSEADMRFYAAEIILGLEHMHNRFVVYRDLKPANILLDEHGHVRISDLGLACDFSKKKPHASVGTHGYMAPEVLQKGVAYDSSADWFSLGCMLFKLLRGHSPFRQHKTKDKHEIDRMTLTMAVELPDSFSPELRSLLEGLLQRDVNRRLGCLGRGAQEVKESPFFRSLDWQMVFLQKYPPPLIPPRGEVNAADAFDIGSFDEEDTKGIKLLDSDQELYRNFPLTISERWQQEVAETVFDTINAETDRLEARKKAKNKQLGHEEDYALGKDCIMHGYMSKMGNPFLTQWQRRYFYLFPNRLEWRGEGEAPQSLLTMEEIQSVEETQIKERKCLLLKIRGGKQFILQCDSDPELVQWKKELRDAYREAQQLVQRVPKMKNKPRSPVVELSKVPLVQRGSANGL

Variants of: B1
Conditions: with ubc_human UBC

| effect of a mutation on the interaction | Variant |
| --- | --- |
| decreasing interaction | K19R |
| decreasing interaction | K30R |
| decreasing interaction | K31R |
